Assays:
RREB1 = RREB1 (Homo sapiens, UniProt Q92766); assay: pulldown; 150 mM NaCl, 50 mM Tris pH 8, 0.25% NP-40, 1 mM TCEP; 4 C, 2 h; 100 ug HeLa nuclear lysate; details: protein: extract; label: 5' biotin (strand 1)
KLF16 = KLF16 (Homo sapiens, UniProt Q9BXK1); assay: as above; details: protein: extract; label: 5' biotin (strand 1)
VEZF1 = molecular target: T1, VEZF1 (Homo sapiens, UniProt Q14119); assay: as above; details: protein: extract; label: 5' biotin (strand 1)
T1 sequence: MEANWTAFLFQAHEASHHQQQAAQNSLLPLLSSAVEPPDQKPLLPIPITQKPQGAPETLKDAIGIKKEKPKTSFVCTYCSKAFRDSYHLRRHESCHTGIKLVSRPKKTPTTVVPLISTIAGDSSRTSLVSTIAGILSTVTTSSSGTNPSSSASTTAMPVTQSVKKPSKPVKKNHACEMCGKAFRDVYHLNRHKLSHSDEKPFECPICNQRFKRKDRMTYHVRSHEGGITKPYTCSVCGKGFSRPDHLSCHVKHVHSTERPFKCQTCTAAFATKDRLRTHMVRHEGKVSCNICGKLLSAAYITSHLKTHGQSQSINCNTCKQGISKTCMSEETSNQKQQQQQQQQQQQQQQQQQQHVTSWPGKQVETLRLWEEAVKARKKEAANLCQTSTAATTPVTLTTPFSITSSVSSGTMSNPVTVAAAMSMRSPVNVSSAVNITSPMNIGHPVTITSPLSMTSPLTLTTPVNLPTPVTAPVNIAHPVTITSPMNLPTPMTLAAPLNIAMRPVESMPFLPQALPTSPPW

SP1 = SP1 (Homo sapiens, UniProt P08047); assay: as above; details: protein: extract; label: 5' biotin (strand 1)
DLX3 = DLX3 (Homo sapiens, UniProt O60479); assay: as above; details: protein: extract; label: 5' biotin (strand 1)
GATA2 = GATA2 (Homo sapiens, UniProt P23769); assay: as above; details: protein: extract; label: 5' biotin (strand 1)
ZNF787 = ZNF787 (Homo sapiens, UniProt Q6DD87); assay: as above; details: protein: extract; label: 5' biotin (strand 1)
ZFHX3 = ZFHX3 (Homo sapiens, UniProt Q15911); assay: as above; details: protein: extract; label: 5' biotin (strand 1)
SIX2 = molecular target: T2, SIX2 (Homo sapiens, UniProt Q9NPC8); assay: as above; details: protein: extract; label: 5' biotin (strand 1)
T2 sequence: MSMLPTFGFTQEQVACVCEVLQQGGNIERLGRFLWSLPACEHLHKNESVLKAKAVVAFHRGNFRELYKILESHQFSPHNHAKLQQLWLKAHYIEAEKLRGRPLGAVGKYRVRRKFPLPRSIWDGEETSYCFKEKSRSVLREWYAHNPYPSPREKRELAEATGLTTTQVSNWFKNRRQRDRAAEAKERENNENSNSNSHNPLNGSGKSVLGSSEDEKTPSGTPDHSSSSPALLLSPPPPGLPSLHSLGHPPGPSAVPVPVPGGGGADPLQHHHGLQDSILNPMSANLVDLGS

TFAP2A = TFAP2A (Homo sapiens, UniProt P05549); assay: as above; details: protein: extract; label: 5' biotin (strand 1)
ELF2 = ELF2 (Homo sapiens, UniProt Q15723); assay: as above; details: protein: extract; label: 5' biotin (strand 1)
TGIF1 = TGIF1 (Homo sapiens, UniProt Q15583); assay: as above; details: protein: extract; label: 5' biotin (strand 1)
BBX = molecular target: T3, BBX (Homo sapiens, UniProt Q8WY36); assay: as above; details: protein: extract; label: 5' biotin (strand 1)
T3 sequence: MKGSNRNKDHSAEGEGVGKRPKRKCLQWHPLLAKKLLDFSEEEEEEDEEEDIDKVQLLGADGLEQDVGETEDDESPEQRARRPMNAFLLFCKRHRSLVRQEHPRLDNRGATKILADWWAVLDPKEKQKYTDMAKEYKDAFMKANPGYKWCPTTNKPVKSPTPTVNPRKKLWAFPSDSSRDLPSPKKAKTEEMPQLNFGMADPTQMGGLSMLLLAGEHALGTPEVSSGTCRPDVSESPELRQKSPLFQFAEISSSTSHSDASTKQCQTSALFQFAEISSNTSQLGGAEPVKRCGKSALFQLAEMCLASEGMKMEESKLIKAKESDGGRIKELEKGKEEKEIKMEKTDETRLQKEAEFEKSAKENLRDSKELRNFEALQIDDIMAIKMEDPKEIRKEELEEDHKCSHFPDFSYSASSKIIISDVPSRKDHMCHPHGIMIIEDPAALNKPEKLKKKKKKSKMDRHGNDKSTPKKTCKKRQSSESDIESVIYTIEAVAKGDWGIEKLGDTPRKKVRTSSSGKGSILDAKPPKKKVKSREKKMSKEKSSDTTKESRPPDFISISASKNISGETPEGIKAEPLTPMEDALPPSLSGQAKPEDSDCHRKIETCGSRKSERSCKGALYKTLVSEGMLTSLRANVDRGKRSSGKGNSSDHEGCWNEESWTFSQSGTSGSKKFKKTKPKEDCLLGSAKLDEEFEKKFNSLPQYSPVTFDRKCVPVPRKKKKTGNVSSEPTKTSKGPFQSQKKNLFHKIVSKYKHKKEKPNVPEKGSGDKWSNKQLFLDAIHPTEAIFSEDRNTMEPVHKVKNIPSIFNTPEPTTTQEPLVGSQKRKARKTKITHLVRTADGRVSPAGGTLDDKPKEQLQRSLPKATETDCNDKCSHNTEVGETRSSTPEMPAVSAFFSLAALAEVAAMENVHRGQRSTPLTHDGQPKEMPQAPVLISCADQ

SMARCB1-WHD = SMARCB1-WHD (UniProt Q12824 1-113); assay: pull-down; Pull-down: 150 mM NaCl (or LiCl), 50 mM Tris pH 8, 0.25% NP-40, 1 mM TCEP, protease inhibitors, 4 C, 2 h; EMSA with lysate in same buffer, RT 15 min; FP in PBS, 25 C; details: protein: recombinant; label: 5' biotin; G4
PHF10-DPF = molecular target: T4, PHF10-DPF (UniProt Q8WUB8 379-481); assay: as above; details: protein: recombinant; tags: GST; label: 5' biotin; G4
T4 sequence: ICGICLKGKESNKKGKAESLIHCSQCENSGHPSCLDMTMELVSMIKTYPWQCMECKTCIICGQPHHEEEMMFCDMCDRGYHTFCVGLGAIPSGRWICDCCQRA

ZBTB7B = ZBTB7B (Homo sapiens, UniProt O15156); assay: pulldown; 150 mM NaCl, 50 mM Tris pH 8, 0.25% NP-40, 1 mM TCEP; 4 C, 2 h; 100 ug HeLa nuclear lysate; details: protein: extract; label: 5' biotin (strand 1)
ZBTB7A = ZBTB7A (Homo sapiens, UniProt O95365); assay: as above; details: protein: extract; label: 5' biotin (strand 1)
ZBTB7A, sequence (O95365 whole entry): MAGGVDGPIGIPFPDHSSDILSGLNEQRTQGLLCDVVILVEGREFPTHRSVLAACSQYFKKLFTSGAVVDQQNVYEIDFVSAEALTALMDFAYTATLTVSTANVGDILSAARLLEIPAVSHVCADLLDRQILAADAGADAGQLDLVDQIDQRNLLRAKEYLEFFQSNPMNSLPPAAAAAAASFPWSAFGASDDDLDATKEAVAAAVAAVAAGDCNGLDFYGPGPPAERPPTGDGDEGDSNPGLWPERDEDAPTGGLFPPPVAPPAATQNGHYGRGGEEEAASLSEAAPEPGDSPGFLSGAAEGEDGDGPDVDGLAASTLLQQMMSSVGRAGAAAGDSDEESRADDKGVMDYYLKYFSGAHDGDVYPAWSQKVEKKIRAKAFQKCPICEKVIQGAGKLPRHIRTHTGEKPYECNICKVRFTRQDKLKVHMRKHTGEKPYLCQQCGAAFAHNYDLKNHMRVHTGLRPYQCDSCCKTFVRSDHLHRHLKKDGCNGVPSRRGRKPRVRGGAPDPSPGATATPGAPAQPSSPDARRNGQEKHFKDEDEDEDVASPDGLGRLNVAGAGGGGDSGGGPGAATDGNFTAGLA

RREB1, sequence (Q92766 whole entry): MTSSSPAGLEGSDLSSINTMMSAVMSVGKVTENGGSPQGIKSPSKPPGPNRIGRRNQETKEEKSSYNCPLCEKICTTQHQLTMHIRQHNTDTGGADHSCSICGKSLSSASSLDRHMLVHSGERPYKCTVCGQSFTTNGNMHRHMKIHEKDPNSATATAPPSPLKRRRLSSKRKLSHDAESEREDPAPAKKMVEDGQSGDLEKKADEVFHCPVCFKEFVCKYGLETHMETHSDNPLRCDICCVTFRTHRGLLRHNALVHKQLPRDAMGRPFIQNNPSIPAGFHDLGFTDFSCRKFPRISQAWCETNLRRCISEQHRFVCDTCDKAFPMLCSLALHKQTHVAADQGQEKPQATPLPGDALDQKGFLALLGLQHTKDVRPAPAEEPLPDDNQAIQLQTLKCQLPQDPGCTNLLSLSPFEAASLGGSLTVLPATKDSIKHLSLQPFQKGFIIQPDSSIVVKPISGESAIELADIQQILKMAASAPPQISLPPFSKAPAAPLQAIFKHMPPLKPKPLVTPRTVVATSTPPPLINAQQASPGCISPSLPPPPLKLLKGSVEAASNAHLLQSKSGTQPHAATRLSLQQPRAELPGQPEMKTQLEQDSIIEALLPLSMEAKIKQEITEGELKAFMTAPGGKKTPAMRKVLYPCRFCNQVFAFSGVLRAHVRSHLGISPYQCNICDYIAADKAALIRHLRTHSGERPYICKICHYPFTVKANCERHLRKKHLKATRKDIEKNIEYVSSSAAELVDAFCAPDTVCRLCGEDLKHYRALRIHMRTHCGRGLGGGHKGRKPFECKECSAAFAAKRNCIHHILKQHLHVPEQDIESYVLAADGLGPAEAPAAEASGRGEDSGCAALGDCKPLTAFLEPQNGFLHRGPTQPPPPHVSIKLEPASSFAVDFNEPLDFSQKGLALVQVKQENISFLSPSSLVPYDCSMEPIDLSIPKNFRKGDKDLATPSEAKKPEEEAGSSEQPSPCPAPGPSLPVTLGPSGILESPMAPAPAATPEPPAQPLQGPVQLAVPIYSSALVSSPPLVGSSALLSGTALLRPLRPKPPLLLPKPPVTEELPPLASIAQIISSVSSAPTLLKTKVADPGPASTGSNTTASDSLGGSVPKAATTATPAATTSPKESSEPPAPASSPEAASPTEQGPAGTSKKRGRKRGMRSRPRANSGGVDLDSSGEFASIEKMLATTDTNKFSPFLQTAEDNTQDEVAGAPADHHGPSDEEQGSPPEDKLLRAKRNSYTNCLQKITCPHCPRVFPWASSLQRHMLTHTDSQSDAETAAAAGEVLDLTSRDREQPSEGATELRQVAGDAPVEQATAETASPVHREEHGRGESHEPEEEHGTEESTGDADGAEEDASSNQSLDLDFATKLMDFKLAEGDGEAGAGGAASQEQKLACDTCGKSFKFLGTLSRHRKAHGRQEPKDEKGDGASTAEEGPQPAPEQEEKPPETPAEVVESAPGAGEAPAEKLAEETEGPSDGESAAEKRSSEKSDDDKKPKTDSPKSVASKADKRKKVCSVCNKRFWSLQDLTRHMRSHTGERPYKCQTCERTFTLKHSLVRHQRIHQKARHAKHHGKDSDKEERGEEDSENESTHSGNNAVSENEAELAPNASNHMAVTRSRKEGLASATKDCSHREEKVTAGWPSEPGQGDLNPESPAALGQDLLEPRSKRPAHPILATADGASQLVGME
DLX3, sequence (O60479 whole entry): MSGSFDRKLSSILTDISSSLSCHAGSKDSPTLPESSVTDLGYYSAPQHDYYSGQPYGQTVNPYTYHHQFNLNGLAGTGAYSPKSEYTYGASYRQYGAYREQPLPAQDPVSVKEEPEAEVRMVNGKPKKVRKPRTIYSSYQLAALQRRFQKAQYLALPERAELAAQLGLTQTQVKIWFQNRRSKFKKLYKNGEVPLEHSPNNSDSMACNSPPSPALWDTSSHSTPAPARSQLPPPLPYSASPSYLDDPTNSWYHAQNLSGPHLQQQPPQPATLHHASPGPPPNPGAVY
ZBTB7B, sequence (O15156 whole entry): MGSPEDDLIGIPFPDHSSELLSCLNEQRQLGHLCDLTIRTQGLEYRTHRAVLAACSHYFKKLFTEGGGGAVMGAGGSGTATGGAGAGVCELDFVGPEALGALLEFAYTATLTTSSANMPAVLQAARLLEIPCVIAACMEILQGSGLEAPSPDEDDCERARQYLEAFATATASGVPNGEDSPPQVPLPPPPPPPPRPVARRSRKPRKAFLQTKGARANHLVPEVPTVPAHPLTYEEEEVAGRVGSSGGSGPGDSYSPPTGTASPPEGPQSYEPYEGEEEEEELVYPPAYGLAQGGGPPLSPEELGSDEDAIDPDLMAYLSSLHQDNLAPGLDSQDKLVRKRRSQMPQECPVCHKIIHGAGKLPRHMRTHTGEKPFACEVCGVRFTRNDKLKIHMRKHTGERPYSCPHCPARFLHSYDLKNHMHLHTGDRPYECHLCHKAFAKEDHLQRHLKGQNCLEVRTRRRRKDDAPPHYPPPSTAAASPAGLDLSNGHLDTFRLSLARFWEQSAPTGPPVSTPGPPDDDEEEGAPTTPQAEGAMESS
KLF16, sequence (Q9BXK1 whole entry): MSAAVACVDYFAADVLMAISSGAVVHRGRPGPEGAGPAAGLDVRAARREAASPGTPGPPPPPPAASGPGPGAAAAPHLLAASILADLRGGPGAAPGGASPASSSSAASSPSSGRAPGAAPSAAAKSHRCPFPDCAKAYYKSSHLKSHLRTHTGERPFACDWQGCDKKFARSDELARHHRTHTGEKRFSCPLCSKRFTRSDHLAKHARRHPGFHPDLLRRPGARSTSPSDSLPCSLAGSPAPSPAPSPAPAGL
TFAP2A, sequence (P05549 whole entry): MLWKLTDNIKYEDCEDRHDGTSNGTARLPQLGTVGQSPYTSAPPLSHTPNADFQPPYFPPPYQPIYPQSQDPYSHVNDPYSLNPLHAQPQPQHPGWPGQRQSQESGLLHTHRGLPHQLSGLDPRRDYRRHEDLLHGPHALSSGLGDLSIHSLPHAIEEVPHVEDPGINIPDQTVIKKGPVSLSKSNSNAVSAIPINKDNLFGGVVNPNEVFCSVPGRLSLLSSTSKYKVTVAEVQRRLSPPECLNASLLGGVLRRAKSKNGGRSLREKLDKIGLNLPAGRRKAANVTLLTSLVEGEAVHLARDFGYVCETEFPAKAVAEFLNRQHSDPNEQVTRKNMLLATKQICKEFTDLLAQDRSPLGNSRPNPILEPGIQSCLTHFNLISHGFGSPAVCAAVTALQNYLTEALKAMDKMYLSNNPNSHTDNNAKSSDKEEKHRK
SMARCB1-WHD, sequence (Q12824 1-113): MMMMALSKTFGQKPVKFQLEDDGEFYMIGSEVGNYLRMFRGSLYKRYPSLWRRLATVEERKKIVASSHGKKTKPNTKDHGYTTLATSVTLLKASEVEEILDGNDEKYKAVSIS
ZNF787, sequence (Q6DD87 whole entry): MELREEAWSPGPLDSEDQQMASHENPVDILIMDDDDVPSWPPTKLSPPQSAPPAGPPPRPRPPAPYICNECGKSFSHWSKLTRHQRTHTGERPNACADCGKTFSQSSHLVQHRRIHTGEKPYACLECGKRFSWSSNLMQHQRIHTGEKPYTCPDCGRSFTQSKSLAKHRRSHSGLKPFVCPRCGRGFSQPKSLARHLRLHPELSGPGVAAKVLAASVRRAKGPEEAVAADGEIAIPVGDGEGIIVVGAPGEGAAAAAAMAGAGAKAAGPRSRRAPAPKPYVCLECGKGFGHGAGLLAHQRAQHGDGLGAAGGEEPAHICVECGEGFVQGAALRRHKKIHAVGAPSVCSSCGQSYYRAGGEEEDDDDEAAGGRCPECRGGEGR
GATA2, sequence (P23769 whole entry): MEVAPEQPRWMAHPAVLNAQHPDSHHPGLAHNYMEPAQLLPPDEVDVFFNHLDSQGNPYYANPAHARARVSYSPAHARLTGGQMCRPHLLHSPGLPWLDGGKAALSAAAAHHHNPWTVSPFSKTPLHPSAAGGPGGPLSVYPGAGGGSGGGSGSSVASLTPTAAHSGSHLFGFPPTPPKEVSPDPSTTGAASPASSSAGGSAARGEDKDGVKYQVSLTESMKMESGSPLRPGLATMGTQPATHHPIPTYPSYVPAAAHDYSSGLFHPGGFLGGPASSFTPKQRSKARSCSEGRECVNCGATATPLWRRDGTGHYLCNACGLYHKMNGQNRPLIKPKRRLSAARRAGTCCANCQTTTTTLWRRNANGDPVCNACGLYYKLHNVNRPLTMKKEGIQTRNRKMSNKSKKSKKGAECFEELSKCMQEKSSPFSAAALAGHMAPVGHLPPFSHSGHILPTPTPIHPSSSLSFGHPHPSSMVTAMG

B1: NF-Y (dsDNA)
DNA 1: ATTGACCAATCAGAGGTAGGATGAT
DNA 2: ATCATCCTACCTCTGATTGGTCAAT
- apparent K (half saturation) (RREB1): 283 nM
- apparent K (half saturation) (KLF16): 200 nM
- apparent K (half saturation) (VEZF1): 249 nM
- apparent K (half saturation) (SP1): 185 nM
- apparent K (half saturation) (DLX3): 52.9 nM
- apparent K (half saturation) (GATA2): 126 nM
- apparent K (half saturation) (ZNF787): 394 nM
- apparent K (half saturation) (ZFHX3): 56.9 nM

B2: AP-1 (dsDNA)
DNA 1: AGTCGGCTAGCTGACTCAGGATGTCC
DNA 2: GGACATCCTGAGTCAGCTAGCCGACT
- apparent K (half saturation) (SIX2): 59.9 nM
- apparent K (half saturation) (RREB1): 317 nM
- apparent K (half saturation) (VEZF1): 255 nM
- apparent K (half saturation) (TFAP2A): 363 nM
- apparent K (half saturation) (ELF2): 205 nM
- apparent K (half saturation) (TGIF1): 322 nM
- apparent K (half saturation) (BBX): 308 nM

B3: mycG4 (Pu27) (structured_DNA)
DNA: TGGGGAGGGTGGGGAGGGTGGGGAAGG
- binding result (SMARCB1-WHD): binds
- binding result (PHF10-DPF): no binding

B4: E-box (dsDNA)
DNA 1: GGAAGCAGACCACGTGGTCTGCTTCC
DNA 2: GGAAGCAGACCACGTGGTCTGCTTCC
- apparent K (half saturation) (ZBTB7B): 405 nM
- apparent K (half saturation) (ZBTB7A): 404 nM

Source: paper PMC5916898, “Global profiling of protein–DNA and protein–nucleosome binding affinities using quantitative mass spectrometry”
